Experimental data published in article PMC4489622.
Several values for one entry are separate records, joined by “and”; a condition that tells them apart may be missing. Equal values may be shown once. One block for each substance: values may come before it.

Assays:
[1] = target: Helicobacter pylori DNA processing protein A (HpDprA), full length, strain J99 (Helicobacter pylori strain J99) (UniProt B5ZAA1); assay: cross-linking; glutaraldehyde on ice, SDS-10% PAGE, silver staining; HpDprA 5 µM with 0.01% to 0.5% glutaraldehyde at 4 °C for 15 min; conditions for HpRF in the legend of Fig B in S1 File
[2] = target: Helicobacter pylori DNA processing protein A (HpDprA), full length, strain J99 (Helicobacter pylori strain J99) (UniProt B5ZAA1); assay: SPR; BIAcore 3000; the same protein amine-coupled on a CM5 chip (~1000 RU) and injected; 25 °C, 10 mM HEPES pH 7.4, 150 mM NaCl, 1 mM EDTA, 0.05% P-20, 20 µl/min; kon from 1:1 Langmuir fit, koff from the main phase of a biphasic dissociation, Kd = koff/kon
[3] = target: Helicobacter pylori DNA processing protein A (HpDprA), full length, strain J99 (Helicobacter pylori strain J99) (UniProt B5ZAA1); assay: SEC; Superdex 75 HR 10/300, 1X PBS, 0.3 ml/min, 500 µl injected, protein at 2 mg/ml, apparent mass from standards
[4] = target: HpDML1, C-terminal DML-1 like domain of HpDprA (residues 213-266) (Helicobacter pylori strain J99) (UniProt B5ZAA1); assay: cross-linking; glutaraldehyde on ice, SDS-12% PAGE, silver staining; HpDML1 at 140 µM, longer incubation with the cross-linker
[5] = target: HpDML1, C-terminal DML-1 like domain of HpDprA (residues 213-266) (Helicobacter pylori strain J99) (UniProt B5ZAA1); assay: SPR; BIAcore 3000; the same protein amine-coupled on a CM5 chip (~1000 RU) and injected; 25 °C, 10 mM HEPES pH 7.4, 150 mM NaCl, 1 mM EDTA, 0.05% P-20, 20 µl/min; kon from 1:1 Langmuir fit, koff from the main phase of a biphasic dissociation, Kd = koff/kon
[6] = target: HpDML1, C-terminal DML-1 like domain of HpDprA (residues 213-266) (Helicobacter pylori strain J99) (UniProt B5ZAA1); assay: SEC; Superdex 75 HR 10/300, 1X PBS, 0.3 ml/min, 500 µl injected, protein at 8 mg/ml, apparent mass from standards
[7] = target: HpRF, N-terminal Rossmann fold domain of HpDprA (residues 1-212) (Helicobacter pylori strain J99) (UniProt B5ZAA1); assay: cross-linking; glutaraldehyde on ice, SDS-10% PAGE, silver staining; HpDprA 5 µM with 0.01% to 0.5% glutaraldehyde at 4 °C for 15 min; conditions for HpRF in the legend of Fig B in S1 File
[8] = target: HpRF, N-terminal Rossmann fold domain of HpDprA (residues 1-212) (Helicobacter pylori strain J99) (UniProt B5ZAA1); assay: SPR; BIAcore 3000; the same protein amine-coupled on a CM5 chip (~1000 RU) and injected; 25 °C, 10 mM HEPES pH 7.4, 150 mM NaCl, 1 mM EDTA, 0.05% P-20, 20 µl/min; kon from 1:1 Langmuir fit, koff from the main phase of a biphasic dissociation, Kd = koff/kon
[9] = target: HpRF, N-terminal Rossmann fold domain of HpDprA (residues 1-212) (Helicobacter pylori strain J99) (UniProt B5ZAA1); assay: SEC; Superdex 75 HR 10/300, 1X PBS, 0.3 ml/min, 500 µl injected, protein at 2 mg/ml, apparent mass from standards

stoichiometry N [1]: 2 and 3
Kd [2]: 22.3 nM
stoichiometry N [3]: 2
Substance: Helicobacter pylori DNA processing protein A (HpDprA), full length, strain J99 (from UniProt B5ZAA1 1-266) (natural protein)

stoichiometry N [4]: 2
Kd [5]: 2350 nM
stoichiometry N [6]: 2
Substance: HpDML1, C-terminal DML-1 like domain of HpDprA (residues 213-266) (from UniProt B5ZAA1 213-266) (domain or fragment)

stoichiometry N [7]: 2
Kd [8]: 22.8 nM
stoichiometry N [9]: 2
Substance: HpRF, N-terminal Rossmann fold domain of HpDprA (residues 1-212) (from UniProt B5ZAA1 1-212) (domain or fragment)
